Test results reported in PMC4980113.

Tests used:
[1] = molecular target: Dip (gp37, degradosome interacting protein) of giant phage φKZ, His-tagged (Pseudomonas phage φKZ); assay: ELISA; 350 nM Dip (C-terminal his-tag) held on Ni-NTA HisSorb strips, increasing amounts of RNA degradosome, detected by anti-Strep-tag II-HRP
[2] = molecular target: Dip (gp37, degradosome interacting protein) of giant phage φKZ, His-tagged (Pseudomonas phage φKZ); assay: AUC; analytical ultracentrifugation of Dip in solution; data not shown

## RNA degradosome of P. aeruginosa, purified (C-terminal Strep-tag II on RNase E) (from UniProt Q9HZM8 1-1057) (complex)
[1]
  Dip protomers per degradosome protomer at saturation of the signal (Dip protomers per degradosome protomer): 10

## Dip (gp37, degradosome interacting protein) of giant phage φKZ, His-tagged (natural protein)
[2]
  stoichiometry N: 2
